Test [1] concerns the target T1, mouse Keap1-DC (aa321-609) (mouse, UniProt Q9Z2X8 321-609).
T1 construct: also called Keap1-DC domain
The experiment in a line: isothermal titration calorimetry. On the technique in general: In ITC the heat of successive injections is recorded.
Procedure: (§1) First, isothermal titration calorimetry was performed using MicroCal iTC₂₀₀ System (GE Healthcare) at 25° C. […] The binding data were analyzed using Origin 7 software (GE healthcare).

Test [2] addresses T1, mouse Keap1-DC (aa321-609). The experiment in a line: isothermal titration calorimetry, 25 C, peptide injected into Keap1-DC.
Procedure: as §1

Where no end group is shown, it is not given here. [ ]: non-standard residue; d: D form. pS = N[C@@H](COP(=O)(O)O)C(=O)O

T1 sequence (Q9Z2X8 321-609 limits assumed): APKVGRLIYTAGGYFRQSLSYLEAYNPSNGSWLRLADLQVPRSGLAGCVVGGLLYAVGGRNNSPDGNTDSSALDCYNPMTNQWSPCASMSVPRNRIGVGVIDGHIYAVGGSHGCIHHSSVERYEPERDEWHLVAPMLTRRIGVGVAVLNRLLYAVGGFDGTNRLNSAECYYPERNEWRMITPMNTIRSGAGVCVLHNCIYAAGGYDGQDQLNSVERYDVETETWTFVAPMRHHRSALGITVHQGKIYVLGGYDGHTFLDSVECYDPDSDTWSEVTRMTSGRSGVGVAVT

B1: phosphorylated KIR (VDP(pS)TGELQ) of mouse p62 (peptide)
peptide: VDP[pS]TGELQ
notes: also called phosphorylated p62-KIR; KIR in mouse phosphorylated p62
For B1, the “fold binding affinity against KIR in the non-phosphorylated p62” value in test [1] is approximately 100 times. Moreover, in test [2], the Ka was found to be 5.12e+06 M⁻¹. As to LDEETGEFL (also called ETGE motif of mouse Nrf2) [Nrf2-ETGE motif (76-LDEETGEFL-84) of mouse Nrf2], the Ka in test [2] turned out to be 6.83e+06 M⁻¹.

B2: non-phosphorylated KIR (348-VDPSTGELQ-356) of mouse p62 (peptide)
peptide: VDPSTGELQ
notes: also called non-phosphorylated p62-KIR; KIR in mouse non-phosphorylated p62
In test [2], B2 displayed a Ka of 56700 M⁻¹.

These data come from patent US20140162292A1 (TOKYO METROPOLITAN INSTITUTE OF MEDICAL SCIENCE, published 2014).
